These results are taken from publication PMC12538437, “Branched DNA processing by a thermostable CAS-Cas4 from Thermococcus onnurineus: Expanding biochemical landscape of nuclease activity”.

The series concerns the target T1, TON_0321 (CAS-Cas4) (Thermococcus onnurineus NA1, UniProt B6YTB9 1-222).
T1 sequence: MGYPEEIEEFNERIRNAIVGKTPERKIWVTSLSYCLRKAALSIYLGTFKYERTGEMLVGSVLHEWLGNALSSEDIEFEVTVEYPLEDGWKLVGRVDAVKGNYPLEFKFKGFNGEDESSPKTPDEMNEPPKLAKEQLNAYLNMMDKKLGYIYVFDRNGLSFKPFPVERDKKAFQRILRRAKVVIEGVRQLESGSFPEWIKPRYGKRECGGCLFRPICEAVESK
The series is described as follows: fluorescence anisotropy; 20 mM ZnSO4; 20 mM Tris-HCl pH 8.0, 100 mM NaCl, 0.5 mM DTT, 0.1 mg/ml BSA, 20 mM ZnSO4, 25 °C; 35 nM DNA (25 nM labeled), 0-1600 nM protein. The following applies: protein: recombinant; tags: N-terminal 6xHis (pET28a); label: 5' 6-FAM; single strand. On the technique in general: Polarisation of emitted light reports the rotation of a fluorescent probe.

ATTCTACCAGTGCCTTGCTAGGACATCTTTGCCCACCTGC (ssDNA) [ssDNA (Y0-1F)]: the binding result is on record as “binds”.
